{"source": "the RNAGym collection of RNA variant scans (doi:10.1093/molbev/msab373)", "parents": {"B1": {"name": "Azoarcus group I ribozyme (parent)", "chain": "GUGCCUUGCGCCGGGAAACCACGCAAGGGAUGGUGUCAAAUUCGGCGAAACCUAAGCGCCCGCCCGGGCGUAUGGCAACGCCGAGCCAAGCUUCGGCGCCUGCGCCGAUGAAGGUGUAGAGACUAGACGGCACCCACCUAAGGCAAACGCUAUGGUGAAGGCAUAGUCCAGGGAGUGGCGAAAGUCACACAAACCGG"}}, "data": [{"variants_of": "B1", "assay": "reverse-splicing fitness (ratio to wild type); higher = more active; in vitro selection; Mg2+ level not given", "procedure,_shortened": "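An in vitro group I ribozyme library with randomized positions was T7-transcribed and gel-purified. In triplicate, 10 pmol RNA in EPPS pH 7.5 was reacted with 50 pmoles of a 30-nt RNA substrate for 1 h at 37 °C across several added MgCl2 levels (1–48 mM), then stopped with EDTA. Products were reverse transcribed from a substrate-complementary primer, PCR-amplified and sequenced (HiSeq 4000). Fitness is a variant's read proportion after selection over that before, normalised to wild type.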", "values": [{"variant": "C82G A111G A145U C169G U176G", "reverse-splicing fitness": 0.00507}, {"variant": "C82G A111G A145U C169G U176A", "reverse-splicing fitness": 0.0136}, {"variant": "C82G A111U A120C A145U C150U C169G U176C", "reverse-splicing fitness": 0.0194}, {"variant": "C82G A111U A120C A145U C150U C169G U176G", "reverse-splicing fitness": 0.00568}, {"variant": "C82G A111U A120C A145U C150U C169G U176A", "reverse-splicing fitness": 0.016}, {"variant": "C82G A111U A120C C150G C169U U176G", "reverse-splicing fitness": 0.00705}, {"variant": "C82G A111U A120C C150G C169U U176C", "reverse-splicing fitness": 0.013}, {"variant": "C82G A111U A120C C150G C169U U176A", "reverse-splicing fitness": 0.00756}, {"variant": "C82G A111U A120C A145U C150G C169G U176C", "reverse-splicing fitness": 0.007}, {"variant": "C82G A111U A120C A145U C150G C169G U176A", "reverse-splicing fitness": 0.00838}, {"variant": "C82G A111U A120C A145U C150G C169G U176G", "reverse-splicing fitness": 0.00592}, {"variant": "C82G A111G C150U C169G U176A", "reverse-splicing fitness": 0.0165}, {"variant": "C82G A111G C150U C169G U176G", "reverse-splicing fitness": 0.00611}, {"variant": "C82G A111G C150U C169G U176C", "reverse-splicing fitness": 0.0201}, {"variant": "C82G A111G C150A", "reverse-splicing fitness": 0.0393}, {"variant": "C82G A111G C150U", "reverse-splicing fitness": 0.199}, {"variant": "C82G A111G C150G", "reverse-splicing fitness": 0.0256}, {"variant": "C82G A111U A120C C150A C169G U176G", "reverse-splicing fitness": 0.00701}, {"variant": "C82G A111U A120C C150A C169G U176C", "reverse-splicing fitness": 0.0267}, {"variant": "C82G A111U A120C C150A C169G U176A", "reverse-splicing fitness": 0.0181}, {"variant": "C82G A111U", "reverse-splicing fitness": 0.387}, {"variant": "C82G A111U A120C A145G C150U C169G U176A", "reverse-splicing fitness": 0.0154}, {"variant": "C82G A111U A120C A145G C150U C169G U176G", "reverse-splicing fitness": 0.00632}, {"variant": "C82G A111U A120C A145G C150U C169G U176C", "reverse-splicing fitness": 0.0196}, {"variant": "C82G A111U A120C A145C C169A U176G", "reverse-splicing fitness": 0.00544}, {"variant": "C82G A111U A120C A145C C169A U176C", "reverse-splicing fitness": 0.00941}, {"variant": "C82G A111U A120C A145C C169A U176A", "reverse-splicing fitness": 0.0193}, {"variant": "C82G A111U A120C A145U U176C", "reverse-splicing fitness": 0.0279}, {"variant": "C82G A111U A120C A145U U176A", "reverse-splicing fitness": 0.0204}, {"variant": "C82G A111U A120C A145U U176G", "reverse-splicing fitness": 0.00709}, {"variant": "C82G A111G A145U U176A", "reverse-splicing fitness": 0.257}, {"variant": "C82G A111G A145U U176C", "reverse-splicing fitness": 0.28}, {"variant": "C82G A111G A145U U176G", "reverse-splicing fitness": 0.136}, {"variant": "C82G A111U A120C A145G C150G C169U U176G", "reverse-splicing fitness": 0.00871}, {"variant": "C82G A111U A120C A145G C150G C169U U176C", "reverse-splicing fitness": 0.0123}, {"variant": "C82G A111U A120C A145G C150G C169U U176A", "reverse-splicing fitness": 0.0139}, {"variant": "C82G A111U A120C A145G C150U C169U U176G", "reverse-splicing fitness": 0.00687}, {"variant": "C82G A111U A120C A145G C150U C169U U176A", "reverse-splicing fitness": 0.0137}, {"variant": "C82G A111U A120C A145G C150U C169U U176C", "reverse-splicing fitness": 0.0146}, {"variant": "C82G A111G C150A C169A", "reverse-splicing fitness": 0.0122}, {"variant": "C82G A111G C150A C169U", "reverse-splicing fitness": 0.0115}, {"variant": "C82G A111G C150A C169G", "reverse-splicing fitness": 0.0109}, {"variant": "C82G A111U A120C A145U C150U U176A", "reverse-splicing fitness": 0.015}, {"variant": "C82G A111U A120C A145U C150U U176C", "reverse-splicing fitness": 0.0247}, {"variant": "C82G A111U A120C A145U C150U U176G", "reverse-splicing fitness": 0.00687}, {"variant": "C82G A111U A120C A145G C150G C169A U176C", "reverse-splicing fitness": 0.0149}, {"variant": "C82G A111U A120C A145G C150G C169A U176G", "reverse-splicing fitness": 0.0104}, {"variant": "C82G A111U A120C A145G C150G C169A U176A", "reverse-splicing fitness": 0.0145}, {"variant": "C82G A111G A145U C150U C169U", "reverse-splicing fitness": 0.0113}, {"variant": "C82G A111G A145U C150U C169G", "reverse-splicing fitness": 0.00988}, {"variant": "C82G A111G A145U C150U C169A", "reverse-splicing fitness": 0.00966}, {"variant": "C82G A111U A120C A145U C150A C169A U176C", "reverse-splicing fitness": 0.0144}, {"variant": "C82G A111U A120C A145U C150A C169A U176A", "reverse-splicing fitness": 0.0187}, {"variant": "C82G A111U A120C A145U C150A C169A U176G", "reverse-splicing fitness": 0.00709}, {"variant": "C82G A111G C150A C169U U176G", "reverse-splicing fitness": 0.00706}, {"variant": "C82G A111G C150A C169U U176A", "reverse-splicing fitness": 0.0165}, {"variant": "C82G A111G C150A C169U U176C", "reverse-splicing fitness": 0.0146}, {"variant": "C82G A111U A120C A145C C150G C169A U176A", "reverse-splicing fitness": 0.0101}, {"variant": "C82G A111U A120C A145C C150G C169A U176C", "reverse-splicing fitness": 0.00917}, {"variant": "C82G A111U A120C A145C C150G C169A U176G", "reverse-splicing fitness": 0.00634}, {"variant": "C82G A111G C150U C169A U176A", "reverse-splicing fitness": 0.0173}, {"variant": "C82G A111G C150U C169A U176C", "reverse-splicing fitness": 0.0178}, {"variant": "C82G A111G C150U C169A U176G", "reverse-splicing fitness": 0.00685}, {"variant": "C82G A111U A120C A145C C150A C169U U176G", "reverse-splicing fitness": 0.00605}, {"variant": "C82G A111U A120C A145C C150A C169U U176C", "reverse-splicing fitness": 0.0105}, {"variant": "C82G A111U A120C A145C C150A C169U U176A", "reverse-splicing fitness": 0.0126}, {"variant": "C82G A111U A120C A145G C150A", "reverse-splicing fitness": 0.0162}, {"variant": "C82G A111U A120C A145G C150U", "reverse-splicing fitness": 0.0415}, {"variant": "C82G A111U A120C A145G C150G", "reverse-splicing fitness": 0.0114}, {"variant": "C82G A111G C150A U176G", "reverse-splicing fitness": 0.0174}, {"variant": "C82G A111G C150A U176A", "reverse-splicing fitness": 0.0337}, {"variant": "C82G A111G C150A U176C", "reverse-splicing fitness": 0.0385}, {"variant": "C82G A111U A120C A145C C150G C169U U176G", "reverse-splicing fitness": 0.00524}, {"variant": "C82G A111U A120C A145C C150G C169U U176A", "reverse-splicing fitness": 0.00676}, {"variant": "C82G A111U A120C A145C C150G C169U U176C", "reverse-splicing fitness": 0.0113}, {"variant": "C82G A111U A120C A145G C150U U176A", "reverse-splicing fitness": 0.015}, {"variant": "C82G A111U A120C A145G C150U U176G", "reverse-splicing fitness": 0.00905}, {"variant": "C82G A111U A120C A145G C150U U176C", "reverse-splicing fitness": 0.0292}, {"variant": "C82G A111G C150G C169G", "reverse-splicing fitness": 0.00817}, {"variant": "C82G A111G C150G C169A", "reverse-splicing fitness": 0.00975}, {"variant": "C82G A111G C150G C169U", "reverse-splicing fitness": 0.0107}, {"variant": "C82G A111G C150U U176A", "reverse-splicing fitness": 0.128}, {"variant": "C82G A111G C150U U176C", "reverse-splicing fitness": 0.144}, {"variant": "C82G A111G C150U U176G", "reverse-splicing fitness": 0.0512}]}]}
